B1: UV excision repair protein RAD23 (Saccharomyces cerevisiae), P32628 (parent)
chain: MVSLTFKNFKKEKVPLDLEPSNTILETKTKLAQSISCEESQIKLIYSGKVLQDSKTVSECGLKDGDQVVFMVSQKKSTKTKVTEPPIAPESATTPGRENSTEASPSTDASAAPAATAPEGSQPQEEQTATTERTESASTPGFVVGTERNETIERIMEMGYQREEVERALRAAFNNPDRAVEYLLMGIPENLRQPEPQQQTAAAAEQPSTAATTAEQPAEDDLFAQAAQGGNASSGALGTTGGATDAAQGGPPGSIGLTVEDLLSLRQVVSGNPEALAPLLENISARYPQLREHIMANPEVFVSMLLEAVGDNMQDVMEGADDMVEGEDIEVTGEAAAAGLGQGEGEGSFQVDYTPEDDQAISRLCELGFERDLVIQVYFACDKNEEAAANILFSDHAD
partner: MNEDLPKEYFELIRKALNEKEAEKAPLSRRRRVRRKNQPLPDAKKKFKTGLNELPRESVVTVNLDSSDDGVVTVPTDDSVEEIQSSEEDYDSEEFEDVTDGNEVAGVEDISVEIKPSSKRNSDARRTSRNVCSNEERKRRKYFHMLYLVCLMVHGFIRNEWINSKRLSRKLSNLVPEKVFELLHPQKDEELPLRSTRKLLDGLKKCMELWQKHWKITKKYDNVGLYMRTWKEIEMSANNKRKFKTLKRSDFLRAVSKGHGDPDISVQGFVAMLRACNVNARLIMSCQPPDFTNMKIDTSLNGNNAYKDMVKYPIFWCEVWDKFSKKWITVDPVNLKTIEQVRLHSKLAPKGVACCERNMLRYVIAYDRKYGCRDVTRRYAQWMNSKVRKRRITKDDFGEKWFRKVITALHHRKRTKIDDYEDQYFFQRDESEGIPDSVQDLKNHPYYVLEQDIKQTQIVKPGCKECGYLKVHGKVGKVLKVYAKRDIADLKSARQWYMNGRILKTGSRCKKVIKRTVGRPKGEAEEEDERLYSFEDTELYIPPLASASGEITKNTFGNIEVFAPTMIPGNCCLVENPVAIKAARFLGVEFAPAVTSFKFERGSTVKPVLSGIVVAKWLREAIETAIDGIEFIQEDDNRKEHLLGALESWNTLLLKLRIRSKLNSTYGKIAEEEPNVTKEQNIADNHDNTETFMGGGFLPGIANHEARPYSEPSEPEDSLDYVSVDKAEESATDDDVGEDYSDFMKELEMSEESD
B2: UV excision repair protein RAD23 (Saccharomyces cerevisiae), P32628 (parent)
chain: B1 chain
partner: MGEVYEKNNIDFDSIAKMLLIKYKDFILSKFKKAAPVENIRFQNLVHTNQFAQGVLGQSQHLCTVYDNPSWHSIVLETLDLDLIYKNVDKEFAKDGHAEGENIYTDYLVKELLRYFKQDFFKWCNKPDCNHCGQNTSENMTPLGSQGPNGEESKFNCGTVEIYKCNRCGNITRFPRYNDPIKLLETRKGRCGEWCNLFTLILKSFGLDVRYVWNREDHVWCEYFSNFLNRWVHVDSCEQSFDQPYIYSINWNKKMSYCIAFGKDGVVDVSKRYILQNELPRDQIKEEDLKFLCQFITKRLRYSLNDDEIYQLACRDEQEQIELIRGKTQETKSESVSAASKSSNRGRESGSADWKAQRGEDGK
B3: UV excision repair protein RAD23 (Saccharomyces cerevisiae), P32628 (parent)
chain: B1 chain
partner: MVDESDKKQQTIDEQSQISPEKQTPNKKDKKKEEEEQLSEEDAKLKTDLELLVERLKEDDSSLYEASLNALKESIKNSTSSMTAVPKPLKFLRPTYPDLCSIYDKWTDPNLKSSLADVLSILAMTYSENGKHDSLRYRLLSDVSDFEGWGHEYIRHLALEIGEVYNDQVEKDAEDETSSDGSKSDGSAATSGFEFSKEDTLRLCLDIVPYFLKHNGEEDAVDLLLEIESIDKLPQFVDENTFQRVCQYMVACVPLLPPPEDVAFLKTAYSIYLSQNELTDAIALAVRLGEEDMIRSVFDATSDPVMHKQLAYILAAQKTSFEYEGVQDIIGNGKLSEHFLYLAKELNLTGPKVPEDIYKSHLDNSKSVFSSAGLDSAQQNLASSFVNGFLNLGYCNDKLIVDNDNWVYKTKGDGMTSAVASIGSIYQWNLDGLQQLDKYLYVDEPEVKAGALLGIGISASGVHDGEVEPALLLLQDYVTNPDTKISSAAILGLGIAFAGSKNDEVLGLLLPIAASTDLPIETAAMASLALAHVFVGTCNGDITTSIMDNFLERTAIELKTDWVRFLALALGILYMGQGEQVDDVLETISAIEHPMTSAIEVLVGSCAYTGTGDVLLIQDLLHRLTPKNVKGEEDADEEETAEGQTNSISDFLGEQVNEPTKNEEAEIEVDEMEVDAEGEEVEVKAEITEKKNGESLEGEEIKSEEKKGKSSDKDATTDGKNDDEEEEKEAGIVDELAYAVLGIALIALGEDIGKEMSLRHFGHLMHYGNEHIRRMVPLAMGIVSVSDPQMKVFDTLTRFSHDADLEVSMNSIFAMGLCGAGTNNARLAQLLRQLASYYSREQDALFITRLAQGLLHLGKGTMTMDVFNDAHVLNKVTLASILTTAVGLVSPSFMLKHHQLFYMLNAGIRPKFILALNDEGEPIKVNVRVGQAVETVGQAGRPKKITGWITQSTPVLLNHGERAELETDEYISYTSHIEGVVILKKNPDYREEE
B4: "Peptide-N(4)-(N-acetyl-beta-glucosaminyl)asparagine amidase" (Saccharomyces cerevisiae), Q02890 (parent)
chain: B2 partner
partner: B1 chain
B5: UV excision repair protein RAD23 (Saccharomyces cerevisiae), P32628 (parent)
chain: B1 chain
partner: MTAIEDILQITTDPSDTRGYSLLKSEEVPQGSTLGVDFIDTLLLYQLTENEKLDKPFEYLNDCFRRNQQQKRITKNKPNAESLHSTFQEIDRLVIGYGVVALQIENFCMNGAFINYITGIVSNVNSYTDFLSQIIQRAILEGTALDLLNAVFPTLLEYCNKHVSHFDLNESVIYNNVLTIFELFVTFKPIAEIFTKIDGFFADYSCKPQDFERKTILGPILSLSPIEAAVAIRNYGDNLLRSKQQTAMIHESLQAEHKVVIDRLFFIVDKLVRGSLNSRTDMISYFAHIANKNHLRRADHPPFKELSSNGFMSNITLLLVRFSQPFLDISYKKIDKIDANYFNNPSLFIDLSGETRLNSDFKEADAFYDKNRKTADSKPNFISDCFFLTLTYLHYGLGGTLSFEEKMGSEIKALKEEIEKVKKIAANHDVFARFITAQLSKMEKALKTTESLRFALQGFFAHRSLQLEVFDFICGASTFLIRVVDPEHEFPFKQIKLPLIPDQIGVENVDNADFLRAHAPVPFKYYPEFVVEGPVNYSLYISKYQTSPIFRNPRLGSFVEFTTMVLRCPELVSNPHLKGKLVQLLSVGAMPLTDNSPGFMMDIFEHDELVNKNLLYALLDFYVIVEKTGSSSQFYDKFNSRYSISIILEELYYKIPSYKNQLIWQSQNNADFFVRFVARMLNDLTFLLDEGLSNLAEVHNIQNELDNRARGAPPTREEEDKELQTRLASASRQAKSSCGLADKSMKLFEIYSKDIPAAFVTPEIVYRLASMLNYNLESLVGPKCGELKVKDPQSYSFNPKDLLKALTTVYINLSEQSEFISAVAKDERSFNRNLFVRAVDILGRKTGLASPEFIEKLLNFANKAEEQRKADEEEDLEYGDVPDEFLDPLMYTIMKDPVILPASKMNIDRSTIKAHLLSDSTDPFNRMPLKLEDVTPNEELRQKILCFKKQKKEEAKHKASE

Variants of: B1
Details: with rad4_yeast RAD4, P14736

effect of a mutation on the interaction | Variant
with no effect | L276Q

Variants of: B2
Details: with png1_yeast PNG1, Q02890

effect of a mutation on the interaction | Variant
with no effect | L183A;L392A
disrupting interaction strength | L276Q

Variants of: B3
Details: with rpn1_yeast RPN1, P38764

effect of a mutation on the interaction | Variant
with no effect | L276Q
with no effect | L183A;L392A

Variants of: B4
Details: with rad23_yeast RAD23, P32628

effect of a mutation on the interaction | Variant
with no effect | H218Y

Variants of: B5
Details: with ufd2_yeast UFD2, P54860

effect of a mutation on the interaction | Variant
with no effect | L276Q
